Test results: paper PMC9352680, “A comprehensive thermodynamic model for RNA binding by the Saccharomyces cerevisiae Pumilio protein PUF4”

T1: PUF4 RNA-binding domain (Saccharomyces cerevisiae, UniProt P25339 537-888)
T1 sequence: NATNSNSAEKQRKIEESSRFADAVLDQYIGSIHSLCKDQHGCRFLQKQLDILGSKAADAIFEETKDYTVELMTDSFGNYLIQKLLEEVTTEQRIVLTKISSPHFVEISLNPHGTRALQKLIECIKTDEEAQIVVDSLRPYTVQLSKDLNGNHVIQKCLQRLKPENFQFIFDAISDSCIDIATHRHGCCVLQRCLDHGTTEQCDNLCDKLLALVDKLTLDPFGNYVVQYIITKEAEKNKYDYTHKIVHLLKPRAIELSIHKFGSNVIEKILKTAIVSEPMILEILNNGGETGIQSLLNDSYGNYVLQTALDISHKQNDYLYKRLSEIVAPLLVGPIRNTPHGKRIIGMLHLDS


Target: T1, PUF4 RNA-binding domain
Assay: Mg; RNA-MaP; 20 mM Na-HEPES pH 7.4, 30 mM KOAc, 0.75 mM MgCl2, 0.1% Tween-20, 5% glycerol, 0.1 mg/mL BSA, 2 mM DTT; 25 C; 0.0125-409.6 nM protein
Settings: tags: N-His6-TEV cleaved; C-SNAP kept, Cy3B-labelled; label: tethered on chip by stalled RNA polymerase

Binder | Kd [nM]
UCUCUUUGUACAUCAUCUCUU (ssRNA) [Ic_S1_P4E.1_K4.1_C4.1_H4.1_A4.1_[T5C]_F4.1_[T8C]_T4.1] | 8.45
UCUCUUUGUACAUGAUCUCUU (ssRNA) [Ic_S1_P4E.1_K4.1_C4.1_H4.1_A4.1_[T5C]_F4.1_[T8G]_T4.1] | 20.2
UCUCUUUGCAUAUUAUCUCUU (ssRNA) [Ia_S1_P4E.1_K4.1_C4.1_H4.1_[T3C]_A4.1_F4.1_T4.1] | 76.5
Ic_S4_P4E.1_K4.1_C4.1_H4.1_A4.1_[T5G]_[A6T]_F4.1_[A9G]_T4.1 (ssRNA) RNA: UUUGACAACUGAUCGUUCUUUCUUGUAGUUUGUUCUUUCUCGAUCAGUUGUCUUU | 65
Ic_S4_P4E.1_K4.1_C4.1_H4.1_A4.1_[T5C]_[A6G]_[T7A]_F4.1_[T8C]_[A9C]_T4.1 (ssRNA) RNA: UUUGACAACUGAUCGUUCUUUCUUGUACGACCUUCUUUCUCGAUCAGUUGUCUUU | 994
Ic_S4_P4E.1_K4.1_C4.1_H4.1_A4.1_[T5C]_[A6G]_[T7C]_F4.1_[T8A]_T4.1 (ssRNA) RNA: UUUGACAACUGAUCGUUCUUUCUUGUACGCAAUUCUUUCUCGAUCAGUUGUCUUU | 657
Ic_S4_P4E.1_K4.1_C4.1_H4.1_A4.1_[T5C]_[A6C]_[T7C]_F4.1_[T8G]_[A9G]_T4.1 (ssRNA) RNA: UUUGACAACUGAUCGUUCUUUCUUGUACCCGGUUCUUUCUCGAUCAGUUGUCUUU | 1370
Ic_S4_P4E.1_K4.1_C4.1_H4.1_A4.1_[T5C]_[A6G]_[T7C]_F4.1_[T8A]_[A9G]_T4.1 (ssRNA) RNA: UUUGACAACUGAUCGUUCUUUCUUGUACGCAGUUCUUUCUCGAUCAGUUGUCUUU | 1470
Ic_S4_P4E.1_K4.1_C4.1_H4.1_A4.1_[T5C]_[A6C]_[T7A]_F4.1_[T8A]_[A9T]_T4.1 (ssRNA) RNA: UUUGACAACUGAUCGUUCUUUCUUGUACCAAUUUCUUUCUCGAUCAGUUGUCUUU | 45.5
Ic_S4_P4E.1_K4.1_C4.1_H4.1_A4.1_[T5C]_[A6G]_F4.1_[T8A]_[A9T]_T4.1 (ssRNA) RNA: UUUGACAACUGAUCGUUCUUUCUUGUACGUAUUUCUUUCUCGAUCAGUUGUCUUU | 30.2
Ic_S4_P4E.1_K4.1_C4.1_H4.1_A4.1_[T5C]_[A6G]_[T7G]_F4.1_[A9C]_T4.1 (ssRNA) RNA: UUUGACAACUGAUCGUUCUUUCUUGUACGGUCUUCUUUCUCGAUCAGUUGUCUUU | 514
Ic_S4_P4E.1_K4.1_C4.1_H4.1_A4.1_[T5C]_[A6C]_[T7G]_F4.1_[T8G]_[A9T]_T4.1 (ssRNA) RNA: UUUGACAACUGAUCGUUCUUUCUUGUACCGGUUUCUUUCUCGAUCAGUUGUCUUU | 2190
Ic_S4_P4E.1_K4.1_C4.1_H4.1_A4.1_[T5C]_[A6G]_[T7C]_F4.1_[T8G]_[A9G]_T4.1 (ssRNA) RNA: UUUGACAACUGAUCGUUCUUUCUUGUACGCGGUUCUUUCUCGAUCAGUUGUCUUU | 1800
Ic_S4_P4E.1_K4.1_C4.1_H4.1_A4.1_[T5C]_[A6C]_F4.1_[T8A]_[A9T]_T4.1 (ssRNA) RNA: UUUGACAACUGAUCGUUCUUUCUUGUACCUAUUUCUUUCUCGAUCAGUUGUCUUU | 12.9
Ic_S4_P4E.1_K4.1_C4.1_H4.1_A4.1_[T5C]_[A6G]_F4.1_[A9T]_T4.1 (ssRNA) RNA: UUUGACAACUGAUCGUUCUUUCUUGUACGUUUUUCUUUCUCGAUCAGUUGUCUUU | 11.9
Ic_S4_P4E.1_K4.1_C4.1_H4.1_A4.1_[T5C]_[A6C]_[T7C]_F4.1_[A9C]_T4.1 (ssRNA) RNA: UUUGACAACUGAUCGUUCUUUCUUGUACCCUCUUCUUUCUCGAUCAGUUGUCUUU | 31.2
Ic_S4_P4E.1_K4.1_C4.1_H4.1_A4.1_[T5G]_[A6T]_F4.1_[A9T]_T4.1 (ssRNA) RNA: UUUGACAACUGAUCGUUCUUUCUUGUAGUUUUUUCUUUCUCGAUCAGUUGUCUUU | 55.8
Ic_S4_P4E.1_K4.1_C4.1_H4.1_A4.1_[T5C]_[A6C]_F4.1_[T8G]_[A9G]_T4.1 (ssRNA) RNA: UUUGACAACUGAUCGUUCUUUCUUGUACCUGGUUCUUUCUCGAUCAGUUGUCUUU | 431
Ic_S4_P4E.1_K4.1_C4.1_H4.1_A4.1_[T5C]_[A6C]_F4.1_[T8C]_[A9C]_T4.1 (ssRNA) RNA: UUUGACAACUGAUCGUUCUUUCUUGUACCUCCUUCUUUCUCGAUCAGUUGUCUUU | 91.4
Ic_S4_P4E.1_K4.1_C4.1_H4.1_A4.1_[T5C]_[A6G]_F4.1_[T8C]_[A9G]_T4.1 (ssRNA) RNA: UUUGACAACUGAUCGUUCUUUCUUGUACGUCGUUCUUUCUCGAUCAGUUGUCUUU | 395
Ic_S4_P4E.1_K4.1_C4.1_H4.1_A4.1_[T5C]_[A6C]_[T7C]_F4.1_[T8G]_[A9C]_T4.1 (ssRNA) RNA: UUUGACAACUGAUCGUUCUUUCUUGUACCCGCUUCUUUCUCGAUCAGUUGUCUUU | 1190
Ic_S4_P4E.1_K4.1_C4.1_H4.1_A4.1_[T5C]_[A6C]_F4.1_[T8A]_T4.1 (ssRNA) RNA: UUUGACAACUGAUCGUUCUUUCUUGUACCUAAUUCUUUCUCGAUCAGUUGUCUUU | 15.7
Ic_S4_P4E.1_K4.1_C4.1_H4.1_A4.1_[T5C]_[A6G]_F4.1_[T8G]_[A9T]_T4.1 (ssRNA) RNA: UUUGACAACUGAUCGUUCUUUCUUGUACGUGUUUCUUUCUCGAUCAGUUGUCUUU | 33.7

Binder | Kd [nM]
Ic_S4_P4E.1_K4.1_C4.1_H4.1_A4.1_[T5C]_[A6G]_[T7G]_F4.1_[A9T]_T4.1 (ssRNA) RNA: UUUGACAACUGAUCGUUCUUUCUUGUACGGUUUUCUUUCUCGAUCAGUUGUCUUU | 158
Ic_S4_P4E.1_K4.1_C4.1_H4.1_A4.1_[T5C]_[A6C]_[T7A]_F4.1_[A9T]_T4.1 (ssRNA) RNA: UUUGACAACUGAUCGUUCUUUCUUGUACCAUUUUCUUUCUCGAUCAGUUGUCUUU | 4.54
Ic_S4_P4E.1_K4.1_C4.1_H4.1_A4.1_[T5C]_[A6G]_[T7C]_F4.1_[T8G]_[A9T]_T4.1 (ssRNA) RNA: UUUGACAACUGAUCGUUCUUUCUUGUACGCGUUUCUUUCUCGAUCAGUUGUCUUU | 400
Ic_S4_P4E.1_K4.1_C4.1_H4.1_A4.1_[T5C]_[A6G]_[T7C]_F4.1_T4.1 (ssRNA) RNA: UUUGACAACUGAUCGUUCUUUCUUGUACGCUAUUCUUUCUCGAUCAGUUGUCUUU | 2.22
Ic_S4_P4E.1_K4.1_C4.1_H4.1_A4.1_[T5C]_[A6C]_[T7A]_F4.1_[A9C]_T4.1 (ssRNA) RNA: UUUGACAACUGAUCGUUCUUUCUUGUACCAUCUUCUUUCUCGAUCAGUUGUCUUU | 15.2
Ic_S4_P4E.1_K4.1_C4.1_H4.1_A4.1_[T5C]_[A6C]_F4.1_[T8A]_[A9C]_T4.1 (ssRNA) RNA: UUUGACAACUGAUCGUUCUUUCUUGUACCUACUUCUUUCUCGAUCAGUUGUCUUU | 75.8
Ic_S4_P4E.1_K4.1_C4.1_H4.1_A4.1_[T5C]_[A6C]_[T7A]_F4.1_[T8C]_[A9T]_T4.1 (ssRNA) RNA: UUUGACAACUGAUCGUUCUUUCUUGUACCACUUUCUUUCUCGAUCAGUUGUCUUU | 47.1
Ic_S4_P4E.1_K4.1_C4.1_H4.1_A4.1_[T5C]_[A6G]_F4.1_[T8A]_[A9C]_T4.1 (ssRNA) RNA: UUUGACAACUGAUCGUUCUUUCUUGUACGUACUUCUUUCUCGAUCAGUUGUCUUU | 316
Ic_S4_P4E.1_K4.1_C4.1_H4.1_A4.1_[T5C]_[A6C]_[T7G]_F4.1_[A9T]_T4.1 (ssRNA) RNA: UUUGACAACUGAUCGUUCUUUCUUGUACCGUUUUCUUUCUCGAUCAGUUGUCUUU | 48.5
Ic_S4_P4E.1_K4.1_C4.1_H4.1_A4.1_[T5C]_[A6C]_[T7G]_F4.1_[T8C]_[A9G]_T4.1 (ssRNA) RNA: UUUGACAACUGAUCGUUCUUUCUUGUACCGCGUUCUUUCUCGAUCAGUUGUCUUU | 827
Ic_S4_P4E.1_K4.1_C4.1_H4.1_A4.1_[T5C]_[A6C]_[T7A]_F4.1_T4.1 (ssRNA) RNA: UUUGACAACUGAUCGUUCUUUCUUGUACCAUAUUCUUUCUCGAUCAGUUGUCUUU | 0.476
Ic_S4_P4E.1_K4.1_C4.1_H4.1_A4.1_[T5C]_[A6C]_[T7C]_F4.1_[T8C]_[A9G]_T4.1 (ssRNA) RNA: UUUGACAACUGAUCGUUCUUUCUUGUACCCCGUUCUUUCUCGAUCAGUUGUCUUU | 642
Ic_S4_P4E.1_K4.1_C4.1_H4.1_A4.1_[T5C]_[A6C]_[T7G]_F4.1_[T8C]_[A9C]_T4.1 (ssRNA) RNA: UUUGACAACUGAUCGUUCUUUCUUGUACCGCCUUCUUUCUCGAUCAGUUGUCUUU | 973
Ic_S4_P4E.1_K4.1_C4.1_H4.1_A4.1_[T5C]_[A6C]_[T7G]_F4.1_[T8C]_[A9T]_T4.1 (ssRNA) RNA: UUUGACAACUGAUCGUUCUUUCUUGUACCGCUUUCUUUCUCGAUCAGUUGUCUUU | 150
Ic_S4_P4E.1_K4.1_C4.1_H4.1_A4.1_[T5C]_[A6G]_[T7A]_F4.1_[T8C]_T4.1 (ssRNA) RNA: UUUGACAACUGAUCGUUCUUUCUUGUACGACAUUCUUUCUCGAUCAGUUGUCUUU | 436
Ic_S4_P4E.1_K4.1_C4.1_H4.1_A4.1_[T5C]_[A6C]_[T7A]_F4.1_[T8C]_T4.1 (ssRNA) RNA: UUUGACAACUGAUCGUUCUUUCUUGUACCACAUUCUUUCUCGAUCAGUUGUCUUU | 151
Ic_S4_P4E.1_K4.1_C4.1_H4.1_A4.1_[T5C]_[A6G]_[T7C]_F4.1_[T8C]_[A9C]_T4.1 (ssRNA) RNA: UUUGACAACUGAUCGUUCUUUCUUGUACGCCCUUCUUUCUCGAUCAGUUGUCUUU | 142
Ic_S4_P4E.1_K4.1_C4.1_H4.1_A4.1_[T5C]_[A6C]_F4.1_[T8G]_[A9C]_T4.1 (ssRNA) RNA: UUUGACAACUGAUCGUUCUUUCUUGUACCUGCUUCUUUCUCGAUCAGUUGUCUUU | 93
Ic_S4_P4E.1_K4.1_C4.1_H4.1_A4.1_[T5C]_[A6G]_[T7G]_F4.1_[T8C]_[A9T]_T4.1 (ssRNA) RNA: UUUGACAACUGAUCGUUCUUUCUUGUACGGCUUUCUUUCUCGAUCAGUUGUCUUU | 488
Ic_S4_P4E.1_K4.1_C4.1_H4.1_A4.1_[T5C]_[A6C]_[T7C]_F4.1_[T8A]_[A9C]_T4.1 (ssRNA) RNA: UUUGACAACUGAUCGUUCUUUCUUGUACCCACUUCUUUCUCGAUCAGUUGUCUUU | 1090
Ic_S4_P4E.1_K4.1_C4.1_H4.1_A4.1_[T5C]_[A6G]_F4.1_[T8C]_[A9C]_T4.1 (ssRNA) RNA: UUUGACAACUGAUCGUUCUUUCUUGUACGUCCUUCUUUCUCGAUCAGUUGUCUUU | 35
UCUCUUUGUUUAUUUUCUCUU (ssRNA) [Ib_S1_P4E.1_K4.1_C4.1_H4.1_[A4T]_A4.1_F4.1_[A9T]_T4.1] | 353
UCUCUUUGUAAAUGAUCUCUU (ssRNA) [Ib_S1_P4E.1_K4.1_C4.1_H4.1_A4.1_[T5A]_F4.1_[T8G]_T4.1] | 113
